167 variants from the RNAGym collection of RNA variant scans (doi:10.7554/elife.80360) can be followed below.

First the molecules themselves.
B1: Twister Ribozyme (parent)
chain: AACACUGCCAAUGCCGGUCCCAAGCCCGGAUAAAAGUGGAGGGGGCGG

This series covers variants of B1. Put plainly: self-cleavage, relative activity (ratio to wild type); higher = more cleavage; co-transcriptional.
With G17U G45C, the self-cleavage turned out to be 0.183.

As for G29A G41U, the self-cleavage came to 0.461.

Regarding C9A A11C, the self-cleavage turned out to be 1.03.

On to A1C A2G, for which the self-cleavage was determined as 1.25.

On to A23G A32U, for which the self-cleavage is 0.393.

As to C3G G47C, the self-cleavage is 0.149.

Take G24C G36C: the self-cleavage stood at 0.0888.

C5A A10C: the self-cleavage turned out to be 0.722.

U12A C19A: the self-cleavage stood at 0.342.

Regarding A11C A33C, the self-cleavage came to 0.724.

As for C8U C9U, the self-cleavage was found to be 0.0747.

G7U A32C: the self-cleavage came out at 0.0917.

A33G G45A: the self-cleavage stood at 0.803.

For the variant G7A C8A, the self-cleavage came out at 0.0866.

With A10C A33G, the self-cleavage was determined as 1.04.

Consider A10C A33U, for which the self-cleavage is 1.08.

Take A10C C20A: the self-cleavage stood at 0.199.

C25G A35G: the self-cleavage amounted to 0.0857.

Turning to A34G G48A, the self-cleavage came to 0.645.

Turning to C26G A33C, the self-cleavage amounted to 0.129.

C15U G43C: the self-cleavage turned out to be 0.125.

For A22G C27U, the self-cleavage came to 0.111.

A11U A22C: the self-cleavage came to 1.17.

For A32U G41A, the self-cleavage was 0.488.

Consider C20A G29C, for which the self-cleavage was 0.0857.

In the case of G7C G28C, the self-cleavage was found to be 0.0717.

In the case of C14U A33C, the self-cleavage was 0.97.

As to C20U G24A, the self-cleavage was found to be 0.0805.

For A22G G36C, the self-cleavage was 0.0743.

On to C9G A10G, for which the self-cleavage is 0.656.

U12C U18G: the self-cleavage is 0.0285.

C9A G29A: the self-cleavage was determined as 0.627.

For G17C A22U, the self-cleavage amounted to 0.0369.

In the case of C21A G44C, the self-cleavage was determined as 0.0966.

On to C19U G39U, for which the self-cleavage is 0.125.

G38C G39A: the self-cleavage amounted to 0.243.

Turning to C20A G24A, the self-cleavage was 0.114.

Turning to A30C G43U, the self-cleavage worked out at 0.121.

On to G13A C21U, for which the self-cleavage is 0.0803.

For the variant A4G C14A, the self-cleavage worked out at 0.76.

Turning to G28U G29C, the self-cleavage is 0.928.

For C3G A4U, the self-cleavage is 0.13.

Take C3G A4G: the self-cleavage is 0.462.

Take C14G U31C: the self-cleavage was 0.142.

For the variant C8A C9U, the self-cleavage stood at 0.0937.

Take C15U G44A: the self-cleavage amounted to 0.935.

With G7U G29U, the self-cleavage worked out at 0.0673.

Consider A1C G43U, for which the self-cleavage was 0.179.

Consider C8U A40G, for which the self-cleavage is 0.172.

Regarding A23U G45U, the self-cleavage was 0.249.

Regarding A30U G43A, the self-cleavage is 0.278.

Take C3G G38U: the self-cleavage was 0.607.

In the case of C9U G41C, the self-cleavage was 0.128.

On to U6A A34C, for which the self-cleavage is 0.859.

Take C26U: the self-cleavage is 0.601.

For the variant A4C U6A, the self-cleavage was 0.0472.

As to A23G G45A, the self-cleavage came to 0.332.

With C27A U37C, the self-cleavage was determined as 0.136.

Consider G36U G39A, for which the self-cleavage amounted to 0.172.

C25U: the self-cleavage worked out at 0.881.

As for A35G G45A, the self-cleavage came to 0.889.

On to A11U G36U, for which the self-cleavage worked out at 0.849.

With G17C A30G, the self-cleavage was found to be 0.0984.

In the case of A23U G43U, the self-cleavage stood at 0.112.

Take C19G G28C: the self-cleavage came out at 0.108.

For the variant U6A G13U, the self-cleavage turned out to be 0.129.

On to A1G G44U, for which the self-cleavage worked out at 0.287.

For A10G C46U, the self-cleavage came out at 1.02.

In the case of A34C G36A, the self-cleavage is 0.0949.

For the variant C3A A23C, the self-cleavage worked out at 0.0997.

Take U31G G39U: the self-cleavage amounted to 0.203.

For the variant A22U G41U, the self-cleavage amounted to 0.137.

Regarding C25G G42A, the self-cleavage was 0.118.

For the variant A11U A23U, the self-cleavage worked out at 0.765.

Turning to C8U G48U, the self-cleavage is 0.678.

As for U18C C46U, the self-cleavage worked out at 0.599.

With U18G A35C, the self-cleavage amounted to 0.0813.

As to A4U U6A, the self-cleavage turned out to be 0.0622.

As to C15G G45U, the self-cleavage is 0.133.

With C14G C25G, the self-cleavage is 0.0771.

Regarding G13A G38C, the self-cleavage is 0.78.

In the case of C20U U37C, the self-cleavage came out at 0.192.

As for G7A G43U, the self-cleavage came out at 0.152.

Turning to C3G U31C, the self-cleavage was 0.347.

On to A1U C21U, for which the self-cleavage amounted to 0.0559.

As for G39U G43U, the self-cleavage was 0.143.

Turning to G29U A32C, the self-cleavage worked out at 0.836.

In the case of C20U C26G, the self-cleavage was found to be 0.0973.

For the variant G7U A11G, the self-cleavage was found to be 0.131.

For the variant C9A G17A, the self-cleavage came out at 0.109.

As for A35G G39C, the self-cleavage was 0.178.

In the case of C27A C46A, the self-cleavage stood at 0.416.

Take G7U U37C: the self-cleavage stood at 0.0889.

As for C3G C19A, the self-cleavage was 0.0808.

As to A35G C46G, the self-cleavage is 0.868.

With A1C A30U, the self-cleavage was found to be 0.177.

As for G13C G28U, the self-cleavage amounted to 0.255.

In the case of C19A G41U, the self-cleavage turned out to be 0.109.

For G16C A40U, the self-cleavage is 0.114.

For C19A A30G, the self-cleavage amounted to 0.444.

With A33G C46U, the self-cleavage was 0.851.

On to G17A A23U, for which the self-cleavage was found to be 0.28.

Consider G7U A40G, for which the self-cleavage amounted to 0.0793.

For G13C C25U, the self-cleavage was 0.163.

Consider A40C G47C, for which the self-cleavage worked out at 0.193.

Take A1U G45C: the self-cleavage was 0.0573.

On to A1U G45U, for which the self-cleavage was 0.0565.

As to A1C U18A, the self-cleavage is 0.14.

Turning to C8A C20U, the self-cleavage came to 0.0847.

In the case of A23G G44U, the self-cleavage was 0.458.

For the variant A22G A35U, the self-cleavage is 0.313.

In the case of U31A U37G, the self-cleavage is 0.659.

As for A11G G48C, the self-cleavage was 1.09.

Regarding A2C A23C, the self-cleavage was 0.0233.

Regarding A2G C14A, the self-cleavage came to 0.291.

Regarding C19G C20A, the self-cleavage is 0.0695.

As to C14A C19A, the self-cleavage is 0.366.

As to C5A C25U, the self-cleavage is 0.236.

For the variant A22C G44C, the self-cleavage amounted to 0.905.

Regarding C5A C14A, the self-cleavage came out at 0.593.

As to A4U C46A, the self-cleavage stood at 0.115.

Take C8G G28U: the self-cleavage is 0.0873.

For the variant A30G G47A, the self-cleavage was 0.817.

With G16A A35G, the self-cleavage worked out at 0.555.

For C25A G42A, the self-cleavage amounted to 0.0675.

As to C26G G36A, the self-cleavage stood at 0.0913.

For the variant G16C A35U, the self-cleavage was 0.577.

Regarding C9U G44C, the self-cleavage came to 0.677.

Consider A30U C46A, for which the self-cleavage came out at 0.872.

As for G28A A34C, the self-cleavage was 0.175.

With C26U G36U, the self-cleavage is 0.133.

C8A G29C: the self-cleavage was 0.0825.

C27G G42A: the self-cleavage worked out at 0.0529.

On to U6A A40G, for which the self-cleavage came out at 0.178.

Take U37G G41C: the self-cleavage is 0.113.

Regarding U18A G42U, the self-cleavage was 0.161.

On to A23G A34C, for which the self-cleavage came to 0.0596.

Regarding A4U U31C, the self-cleavage worked out at 0.0955.

Turning to C3U G13C, the self-cleavage turned out to be 0.168.

Consider U6C C20G, for which the self-cleavage stood at 0.0668.

In the case of A1C C15G, the self-cleavage was found to be 0.187.

With C5A U18A, the self-cleavage came out at 0.118.

As for C15G A34G, the self-cleavage was determined as 0.103.

For the variant C15G A34U, the self-cleavage came to 0.109.

For the variant C14G G45C, the self-cleavage turned out to be 0.0594.

Take C5U G44U: the self-cleavage stood at 0.816.

In the case of C25A C27U, the self-cleavage came to 0.136.

Regarding A23C C26G, the self-cleavage was 0.12.

Take C14A G24U: the self-cleavage is 0.146.

Consider G13A A22U, for which the self-cleavage amounted to 0.424.

For G17A G47U, the self-cleavage came to 0.489.

As for A10C C15A, the self-cleavage was 0.493.

Turning to A4C C20U, the self-cleavage was 0.0732.

Turning to U12C C20A, the self-cleavage stood at 0.128.

As to G17C A32G, the self-cleavage worked out at 0.129.

As to G7C G16U, the self-cleavage was 0.0598.

For A11U G41C, the self-cleavage came out at 0.374.

Consider G29C G42A, for which the self-cleavage was found to be 0.11.

As to C14G G16C, the self-cleavage came out at 0.143.

As to G24U, the self-cleavage is 0.128.

With C14G A30G, the self-cleavage stood at 0.122.

With A35C G44U, the self-cleavage was 0.976.

Turning to C25G G47C, the self-cleavage turned out to be 0.142.

For A2U C9U, the self-cleavage is 0.133.

A2U C9A: the self-cleavage was determined as 0.0899.

Turning to U37C A40U, the self-cleavage was 0.0912.

As to A2U U31A, the self-cleavage came out at 0.605.
